Measurements: the supplement of paper PMC10065799, “High-throughput profiling of sequence recognition by tyrosine kinases and SH2 domains using bacterial peptide display” (eLife, 2023)

Target: FGFR3 (UniProt P22607)
Assay: phosphorylation enrichment, bacterial display (enrichment ratio); higher = better substrate or ligand; peptides without Tyr show the background
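Note: 11-residue human phosphosite peptides and single-mutation variants displayed on the E. coli surface, counted by deep sequencing, each peptide's frequency after selection divided by its frequency in the unselected input library; frequency after pTyr selection over input frequency; kinase dosed for 20-30% of maximal phosphorylation in three min.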

Sequence of FGFR3 (P22607 whole entry, looked up): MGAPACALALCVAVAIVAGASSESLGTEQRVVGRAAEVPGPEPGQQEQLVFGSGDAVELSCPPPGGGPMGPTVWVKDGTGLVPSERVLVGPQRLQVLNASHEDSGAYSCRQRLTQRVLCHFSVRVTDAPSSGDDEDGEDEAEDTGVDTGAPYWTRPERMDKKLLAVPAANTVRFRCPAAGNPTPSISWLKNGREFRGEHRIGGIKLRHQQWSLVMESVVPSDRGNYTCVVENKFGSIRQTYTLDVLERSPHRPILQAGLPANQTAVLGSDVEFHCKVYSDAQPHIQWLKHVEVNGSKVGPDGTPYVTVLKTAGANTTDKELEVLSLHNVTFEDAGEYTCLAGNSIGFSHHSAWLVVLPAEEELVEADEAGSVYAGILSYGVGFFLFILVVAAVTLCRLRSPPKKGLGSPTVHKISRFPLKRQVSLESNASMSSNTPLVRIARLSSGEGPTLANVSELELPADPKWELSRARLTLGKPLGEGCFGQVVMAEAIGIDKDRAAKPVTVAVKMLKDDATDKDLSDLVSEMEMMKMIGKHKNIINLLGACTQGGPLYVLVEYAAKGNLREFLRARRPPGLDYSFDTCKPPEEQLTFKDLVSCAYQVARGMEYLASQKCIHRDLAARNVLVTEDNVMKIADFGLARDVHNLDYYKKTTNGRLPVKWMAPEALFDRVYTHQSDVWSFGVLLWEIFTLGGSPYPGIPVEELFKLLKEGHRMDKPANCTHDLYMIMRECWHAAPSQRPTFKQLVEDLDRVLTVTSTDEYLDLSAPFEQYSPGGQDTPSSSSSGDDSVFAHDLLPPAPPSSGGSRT

Sequence	phosphorylation enrichment
VRFMAYTDETF [F8_Y450]	0.746
SVVVLYEPPEV [TP53_Y220_P219L]	0.738
KKLHEYNTQFQ [PIK3R1_Y452]	0.366
ALRHFYKLNII [ETV6_Y402_YF]	0.628
NREGVYRVFAP [TGFBI_Y537_T538R]	0.495
FQCLRYIKQLG [SAMHD1_Y146_R143C]	0.596
NACGLYHKMNG [GATA5_Y216]	0.567
EFFENYIEELK [PARP4_Y218_F215Y_YF]	0.744
VSLLPYFPAIM [IPO4_Y518_A513V]	0.873
VMAVAYRLAEQ [HK1_Y461_T457M]	0.676
VICRRYLVMQR [IL3RA_Y328]	0.74
SIKDKHVTALF [KCNH2_Y611_Y611H_YF]	0.435
LDTSQYFRLFN [CPT2_Y217_M214T]	1.36
AGTILSHAHLD [ASS1_Y291_Y291S]	0.546
TNRSFYFKPSL [NUP153_Y382_V381F]	0.63
SSFDTYHLSRE [KIR3DL2_Y253_I252T_YF]	0.595
APSEFYDGDHD [HDAC3_Y414_N411S]	0.923

Sequence	phosphorylation enrichment
TYAVSYLPDMS [FLNC_Y1602_T1599A]	0.576
TDGIAYEFRVI	0.852
FLQEIYNSNNQ [FGG_Y140_YF]	0.883
GNLLIYTEFGK [HGD_Y166]	0.731
QTENKYDSVSG [EIF2AK3_Y565]	0.64
VVPGSYDRLRV [IFT172_Y260_L257P]	0.439
RAILDYIASKF [GSTA3_Y74_N73D_YF]	0.79
VRTGIYHGREP [PIK3CA_Y361_G364R]	0.46
WDSSGYWTPEE [PAPPA2_Y908_C903W]	0.87
EWLRRYLKNGK [HLA-C_Y195_E197K]	0.516
LANNEYFFRVC	1.47
FDSPFYRDSLP [TSC1_Y508]	0.484
HNLYSYPTKYE [MYO3A_Y1396_H1400Y]	0.683
GTAPSYGNPSS [CD19_Y378]	0.494
SVTCTGSPALN [TP53_Y126_Y126G]	0.511
AEPHTYEEPGR [EPHA8_Y616]	0.581

Tested on: Fer (mouse)
Assay: as above

Sequence	phosphorylation enrichment
VRFMAYTDETF [F8_Y450]	0.494
SVVVLYEPPEV [TP53_Y220_P219L]	5.4
KKLHEYNTQFQ [PIK3R1_Y452]	0.389
ALRHFYKLNII [ETV6_Y402_YF]	0.502
NREGVYRVFAP [TGFBI_Y537_T538R]	0.397
FQCLRYIKQLG [SAMHD1_Y146_R143C]	0.428
NACGLYHKMNG [GATA5_Y216]	0.673
EFFENYIEELK [PARP4_Y218_F215Y_YF]	0.532
VSLLPYFPAIM [IPO4_Y518_A513V]	0.508
VMAVAYRLAEQ [HK1_Y461_T457M]	0.491
VICRRYLVMQR [IL3RA_Y328]	0.46
SIKDKHVTALF [KCNH2_Y611_Y611H_YF]	0.399
LDTSQYFRLFN [CPT2_Y217_M214T]	0.498
AGTILSHAHLD [ASS1_Y291_Y291S]	0.374
TNRSFYFKPSL [NUP153_Y382_V381F]	0.406
SSFDTYHLSRE [KIR3DL2_Y253_I252T_YF]	0.539
APSEFYDGDHD [HDAC3_Y414_N411S]	0.639

Sequence	phosphorylation enrichment
TYAVSYLPDMS [FLNC_Y1602_T1599A]	0.575
TDGIAYEFRVI	0.843
FLQEIYNSNNQ [FGG_Y140_YF]	0.63
GNLLIYTEFGK [HGD_Y166]	0.54
QTENKYDSVSG [EIF2AK3_Y565]	0.384
VVPGSYDRLRV [IFT172_Y260_L257P]	0.332
RAILDYIASKF [GSTA3_Y74_N73D_YF]	0.542
VRTGIYHGREP [PIK3CA_Y361_G364R]	0.374
WDSSGYWTPEE [PAPPA2_Y908_C903W]	0.569
EWLRRYLKNGK [HLA-C_Y195_E197K]	0.471
LANNEYFFRVC	0.505
FDSPFYRDSLP [TSC1_Y508]	0.497
HNLYSYPTKYE [MYO3A_Y1396_H1400Y]	17
GTAPSYGNPSS [CD19_Y378]	0.299
SVTCTGSPALN [TP53_Y126_Y126G]	0.423
AEPHTYEEPGR [EPHA8_Y616]	0.433

Target: Fes (UniProt P07332)
Assay: as above

Sequence of Fes (P07332 whole entry, looked up): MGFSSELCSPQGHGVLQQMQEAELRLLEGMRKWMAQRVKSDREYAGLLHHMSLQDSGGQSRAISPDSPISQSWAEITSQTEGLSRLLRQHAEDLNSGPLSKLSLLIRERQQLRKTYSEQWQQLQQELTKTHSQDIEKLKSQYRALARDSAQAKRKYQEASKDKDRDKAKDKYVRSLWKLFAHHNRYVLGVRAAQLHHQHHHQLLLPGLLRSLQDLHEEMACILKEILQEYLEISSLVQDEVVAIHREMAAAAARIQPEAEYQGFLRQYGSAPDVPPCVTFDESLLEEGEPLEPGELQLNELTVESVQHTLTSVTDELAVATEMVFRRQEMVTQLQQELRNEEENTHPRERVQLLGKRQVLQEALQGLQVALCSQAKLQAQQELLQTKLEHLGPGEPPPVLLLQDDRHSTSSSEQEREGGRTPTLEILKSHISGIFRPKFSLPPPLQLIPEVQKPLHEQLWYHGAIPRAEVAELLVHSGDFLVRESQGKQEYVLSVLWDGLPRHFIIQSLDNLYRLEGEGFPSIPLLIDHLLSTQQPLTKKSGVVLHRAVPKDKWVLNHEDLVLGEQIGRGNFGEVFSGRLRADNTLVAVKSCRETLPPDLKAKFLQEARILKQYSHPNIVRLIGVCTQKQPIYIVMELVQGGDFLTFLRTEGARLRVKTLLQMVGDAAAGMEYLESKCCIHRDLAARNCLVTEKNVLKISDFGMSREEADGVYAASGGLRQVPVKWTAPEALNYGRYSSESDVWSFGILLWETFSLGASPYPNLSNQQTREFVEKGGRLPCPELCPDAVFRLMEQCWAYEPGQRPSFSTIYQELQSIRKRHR

Sequence	phosphorylation enrichment
VRFMAYTDETF [F8_Y450]	1.19
SVVVLYEPPEV [TP53_Y220_P219L]	1.15
KKLHEYNTQFQ [PIK3R1_Y452]	0.541
ALRHFYKLNII [ETV6_Y402_YF]	1.03
NREGVYRVFAP [TGFBI_Y537_T538R]	0.556
FQCLRYIKQLG [SAMHD1_Y146_R143C]	1.25
NACGLYHKMNG [GATA5_Y216]	1.03
EFFENYIEELK [PARP4_Y218_F215Y_YF]	1.35
VSLLPYFPAIM [IPO4_Y518_A513V]	1.32
VMAVAYRLAEQ [HK1_Y461_T457M]	1.06
VICRRYLVMQR [IL3RA_Y328]	1.05
SIKDKHVTALF [KCNH2_Y611_Y611H_YF]	0.633
LDTSQYFRLFN [CPT2_Y217_M214T]	0.784
AGTILSHAHLD [ASS1_Y291_Y291S]	0.847
TNRSFYFKPSL [NUP153_Y382_V381F]	0.993
SSFDTYHLSRE [KIR3DL2_Y253_I252T_YF]	0.842
APSEFYDGDHD [HDAC3_Y414_N411S]	1.35

Sequence	phosphorylation enrichment
TYAVSYLPDMS [FLNC_Y1602_T1599A]	0.763
TDGIAYEFRVI	1.34
FLQEIYNSNNQ [FGG_Y140_YF]	1.08
GNLLIYTEFGK [HGD_Y166]	1.28
QTENKYDSVSG [EIF2AK3_Y565]	1.13
VVPGSYDRLRV [IFT172_Y260_L257P]	0.603
RAILDYIASKF [GSTA3_Y74_N73D_YF]	1.02
VRTGIYHGREP [PIK3CA_Y361_G364R]	0.599
WDSSGYWTPEE [PAPPA2_Y908_C903W]	1.08
EWLRRYLKNGK [HLA-C_Y195_E197K]	0.636
LANNEYFFRVC	1.19
FDSPFYRDSLP [TSC1_Y508]	0.68
HNLYSYPTKYE [MYO3A_Y1396_H1400Y]	0.958
GTAPSYGNPSS [CD19_Y378]	0.56
SVTCTGSPALN [TP53_Y126_Y126G]	0.972
AEPHTYEEPGR [EPHA8_Y616]	0.824

Target: Fyn (UniProt P06241)
Assay: as above

Sequence of Fyn (P06241 whole entry, looked up): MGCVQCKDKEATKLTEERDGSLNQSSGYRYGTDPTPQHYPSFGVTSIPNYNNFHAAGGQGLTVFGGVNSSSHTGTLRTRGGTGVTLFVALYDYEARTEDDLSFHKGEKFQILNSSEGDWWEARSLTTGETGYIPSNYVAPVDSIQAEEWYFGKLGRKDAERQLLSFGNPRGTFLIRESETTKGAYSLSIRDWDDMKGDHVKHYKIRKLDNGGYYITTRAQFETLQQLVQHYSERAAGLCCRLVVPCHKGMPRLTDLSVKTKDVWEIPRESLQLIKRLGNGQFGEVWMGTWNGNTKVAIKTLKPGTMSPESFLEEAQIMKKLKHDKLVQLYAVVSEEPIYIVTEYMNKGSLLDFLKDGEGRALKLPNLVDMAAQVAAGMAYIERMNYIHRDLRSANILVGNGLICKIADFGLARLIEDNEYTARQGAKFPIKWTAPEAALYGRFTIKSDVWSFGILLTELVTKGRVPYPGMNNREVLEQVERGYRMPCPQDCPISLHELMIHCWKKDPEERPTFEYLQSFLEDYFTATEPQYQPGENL

Sequence	phosphorylation enrichment
VRFMAYTDETF [F8_Y450]	0.516
SVVVLYEPPEV [TP53_Y220_P219L]	0.59
KKLHEYNTQFQ [PIK3R1_Y452]	0.39
ALRHFYKLNII [ETV6_Y402_YF]	0.471
NREGVYRVFAP [TGFBI_Y537_T538R]	4.68
FQCLRYIKQLG [SAMHD1_Y146_R143C]	0.427
NACGLYHKMNG [GATA5_Y216]	0.371
EFFENYIEELK [PARP4_Y218_F215Y_YF]	0.421
VSLLPYFPAIM [IPO4_Y518_A513V]	0.541
VMAVAYRLAEQ [HK1_Y461_T457M]	0.431
VICRRYLVMQR [IL3RA_Y328]	0.595
SIKDKHVTALF [KCNH2_Y611_Y611H_YF]	0.417
LDTSQYFRLFN [CPT2_Y217_M214T]	0.413
AGTILSHAHLD [ASS1_Y291_Y291S]	0.367
TNRSFYFKPSL [NUP153_Y382_V381F]	0.428
SSFDTYHLSRE [KIR3DL2_Y253_I252T_YF]	4.75
APSEFYDGDHD [HDAC3_Y414_N411S]	0.615

Sequence	phosphorylation enrichment
TYAVSYLPDMS [FLNC_Y1602_T1599A]	0.589
TDGIAYEFRVI	0.514
FLQEIYNSNNQ [FGG_Y140_YF]	1.46
GNLLIYTEFGK [HGD_Y166]	7.36
QTENKYDSVSG [EIF2AK3_Y565]	0.604
VVPGSYDRLRV [IFT172_Y260_L257P]	0.359
RAILDYIASKF [GSTA3_Y74_N73D_YF]	0.433
VRTGIYHGREP [PIK3CA_Y361_G364R]	0.357
WDSSGYWTPEE [PAPPA2_Y908_C903W]	0.53
EWLRRYLKNGK [HLA-C_Y195_E197K]	0.439
LANNEYFFRVC	0.74
FDSPFYRDSLP [TSC1_Y508]	0.454
HNLYSYPTKYE [MYO3A_Y1396_H1400Y]	5.43
GTAPSYGNPSS [CD19_Y378]	0.358
SVTCTGSPALN [TP53_Y126_Y126G]	0.422
AEPHTYEEPGR [EPHA8_Y616]	0.489
